In experiment [1] the test system is PAPSS2. Put plainly: PAPSS2 enzyme activity, coupled radiochemical assay (PAPS generation then SULT1E1-catalyzed sulfation of [3H]estradiol) with COS-1 expressed recombinant allozymes. The class given is biochemical, human. The conditions noted are these: His-tagged recombinant allozyme, loxP-modified p91023(b) vector, COS-1 cells, corrected for transfection efficiency. An excerpt:
Variant alleles of the four non-synonymous PAPSS2 cSNPs observed during the resequencing experiments were created using the QuickChange Site-Directed Mutagenesis Kit (Stratagene, La Jolla, Calif.), with wild type PAPSS2 cDNA in pUni as template. The sequence of the pUni insert was confirmed by completely sequencing both strands before recombination with the loxP-modified p91023(b) acceptor vector. pUni donor vectors that contained wild type and variant PAPSS2 cDNAs, as well as empty pUni, then were combined with the loxP-modified p91023(b) acceptor vector to generate the final expression constructs. In all cases, the fusion junctions of resultant expression constructs were sequenced to confirm that the construct was a dimer consisting of only a single donor and a single acceptor vector. These expression constructs were used to transfect COS-1 cells using TransFast™ reagent (Promega) with a 1:1 charge ratio. pSV-β-galactosidase (Promega) was co-transfected with each construct as an internal control to correct for transfection efficiency. Transfected COS-1 cells were harvested after 48 hours and were homogenized with a Polytron homogenizer (Brinkmann Instruments, Westbury, N.Y.) in 25 mM potassium phosphate buffer, pH 7.8, containing 1 mM dithiothreitol (DTT) and 1 mM EDTA. The homogenates were centrifuged at 15,000 g for 15 minutes, and the resultant supernatant preparations were used to perform enzyme assays, substrate kinetic studies and Western blot analyses. In some cases, aliquots of these cytosol preparations were stored at −80° C. prior to assay.
PAPSS2 Enzyme Activity: PAPSS2 activity was measured with a coupled radiochemical assay. See Xu et al., 2001, supra. Briefly, PAPS is generated from ATP and Na2SO4 in a PAPSS2-catalyzed reaction. The generated PAPS is then used as a substrate for the SULT1E1-catalyzed sulfate conjugation of [2,4,6,7-^3H]estradiol, a radioactively labeled sulfate acceptor substrate. The cell homogenate preparations of recombinant PAPSS2 allozymes described above were used for the activity studies without any further purification. The protein concentration of each recombinant protein preparation was determined by the dye-binding method of Bradford with bovine serum albumin (BSA) as a standard.
PAPS synthesis was catalyzed by recombinant wild-type PAPSS2 or PAPSS2 allozymes (present in the cell homogenate preparations described above) in the presence of 1 mM ATP, 16 mM Na2SO4, 1 mM MgCl2, and 2 mM DTT in 60 mM glycine-NaOH buffer, pH 8.6. Blank samples included the same quantity of COS-1 cytosol protein from cells that had been transfected with empty expression vector to make it possible to correct for endogenous activity. Reaction mixtures were incubated at 37° C. for 20 minutes, and then terminated by heating at 100° C. for 1 minute. An aliquot from this PAPS-generating reaction was then added to a second, coupled reaction containing recombinant human SULT1E1 isolated from COS-1 cells transfected with a SULT1E1 expression construct (see Aksoy et al., Biochem. Biophys. Res. Commun., 200:1621–1629 (1994)). The coupled reaction also included 27 nM [2,4,6,7-^3H]estradiol, 8 mM DTT and 1.25 mM MgCl2 in 10 mM potassium phosphate buffer, pH 6.5. The second, SULT1E1-catalyzed reactions were incubated at 37° C. for 20 minutes, and then terminated by the addition of KOH, followed by organic solvent extraction performed with chloroform. Radioactivity of the sulfate conjugated [2,4,6,7-^3H]estradiol in the aqueous phase after organic solvent extraction was then measured in a liquid scintillation counter. PAPSS activities of recombinant PAPSS2 allozymes were compared after correction for transfection efficiency by measuring the activity of cotransfected P-galactosidase. β-Galactosidase activity in the COS-1 cell preparations was measured with the β-Galactosidase Assay System (Promega) as described by the manufacturer. […]

Experiment [2] concerns the target T1, PAPSS2 (Homo sapiens, UniProt O95340).
T1 construct: the wild-type full-length open reading frame (ORF) of the human PAPSS2 cDNA; made in house; host or cells: COS-1 or HepG2 cells, transient transfection; cytosol not purified
T1 sequence (O95340 1-614 R426C): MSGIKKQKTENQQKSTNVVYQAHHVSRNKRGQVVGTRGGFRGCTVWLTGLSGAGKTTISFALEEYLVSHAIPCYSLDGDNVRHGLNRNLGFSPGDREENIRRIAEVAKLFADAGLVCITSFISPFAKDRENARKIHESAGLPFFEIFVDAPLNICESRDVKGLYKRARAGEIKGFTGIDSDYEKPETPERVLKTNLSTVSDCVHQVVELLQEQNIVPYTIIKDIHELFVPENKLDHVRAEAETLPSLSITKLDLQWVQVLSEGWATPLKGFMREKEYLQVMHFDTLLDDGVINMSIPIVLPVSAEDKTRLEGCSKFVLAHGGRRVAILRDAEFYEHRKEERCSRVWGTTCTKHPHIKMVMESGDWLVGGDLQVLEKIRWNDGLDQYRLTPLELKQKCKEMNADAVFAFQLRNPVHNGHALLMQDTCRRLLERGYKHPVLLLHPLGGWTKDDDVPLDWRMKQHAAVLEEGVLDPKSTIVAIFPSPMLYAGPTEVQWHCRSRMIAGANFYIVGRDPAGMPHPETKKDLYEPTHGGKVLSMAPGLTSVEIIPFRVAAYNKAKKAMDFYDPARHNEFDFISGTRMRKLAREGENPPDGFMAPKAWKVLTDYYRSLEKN
Put plainly: PAPSS activity of cells transfected with wild type PAPSS2 construct versus empty vector / endogenous activity. Type of experiment: biochemical. The conditions noted are these: loxP-modified p91023(b) vector, COS-1 cells. The procedure: Initial expression studies were performed with the commercially available pcDNA4/HisMax-E (pcDNA4) acceptor vector (Invitrogen). Specifically, the pUni donor vector, with and without the PAPSS2 cDNA insert, was combined with the pcDNA4 acceptor vector by Cre recombinase through the loxP sites present in both donor and acceptor vectors. The resultant fusion constructs (pUni/pcDNA4) then were used to transfect either COS-1 or HepG2 cells. However, the construct with the wild type PAPSS2 cDNA insert expressed only about 2-fold higher PAPSS activity in both COS-1 and HepG2 cells than did the control “empty” pUni-pcDNA4. This low signal/noise ratio was due in part to the high levels of endogenous PAPSS activity in mammalian cells. Obviously, this situation would have made it difficult to study the functional significance of PAPSS2 non-synonymous cSNPs.
The loxP site required for Cre recombinase-mediated recombination thus was adapted for cloning into the p91023(b) cloning site so a recombination approach could be used to clone PAPSS2 cDNAs into this vector. A 133 base pair pcDNA4 DNA segment (nucleotides 1080–1212) containing the N-terminal His-tag and the loxP site was amplified by PCR, and this amplicon was ligated into the EcoRI site of p91023(b). As a result, the loxP-modified p91023(b) acceptor vector was also able to add an N-terminal His-tag to the expressed protein. […]

This is an account of results in patent US7186551B1, “3′-phosphoadenosine -5′-phosphosulfate synthetase 2 (PAPSS2) sequence variants” (Mayo Foundation for Medical Education and Research, priority 2001, dated 2007).

B1: wild type: reference human PAPSS2 polypeptide (SEQ ID NO:9, GenBank AF091242), recombinantly expressed in COS-1 cells (protein, listed as Homo sapiens)
chain: T1 sequence (O95340 1-614 R426C)
As to B1, in the experiment on PAPSS2 [1], the “% WT activity” value stood at 100%. The “increase in PAPSS activity over basal endogenous activity” value in the experiment with PAPSS2 [2] is on record as “greater than 7 fold”.
